From PMC9445010

Assays:
[1] = biological target: pMMO monomer consisting of PmoA, PmoB, and PmoC (Methylococcus capsulatus (Bath) (endogenous in M. capsulatus (Bath))) (UniProt Q607G3); experiment: cryo-EM structure; cryoET with subtomogram averaging of isolated M. capsulatus (Bath) membranes, no detergent; 25 mM PIPES pH 7.3, 250 mM NaCl; single trimer 4.8 Å, 7-particle unit 10 Å, three trimers 12 Å; 3-fold symmetry applied
[2] = biological target: particulate methane monooxygenase (pMMO) trimer (Methylococcus capsulatus (Bath) (endogenous in M. capsulatus (Bath))) (UniProt Q607G3)

Row | stoichiometry N [1] | methane oxidation activity of SEC fractions with larger pMMO nanodisc arrays against single particle nanodiscs (13C-methanol by GC/MS, duroquinol reductant, 45 °C) [2] [fold] | Substance
1 | 3 | – | pMMO monomer consisting of PmoA, PmoB, and PmoC (from UniProt Q607G3 1-247; G1UBD1 33-414) (complex)
2 | – | < 3 | particulate methane monooxygenase (pMMO) trimer (from UniProt Q607G3 1-247; G1UBD1 33-414) (complex)
